Source: article PMC2194782

Target: human plasmin (formed from plasminogen incubated with equimolar SAK or RGD-SAK) (human)

Substance: RGD-SAK (staphylokinase with K35 replaced by Arg) (from UniProt P68802 28-163) (natural protein)
- kcat/Km of plasminogen activation by the preformed equimolar RGD-SAK-plasmin complex, monitored with S-2251: 37000 M⁻¹ s⁻¹

Substance: staphylokinase (SAK) (from UniProt P68802 28-163) (natural protein)
- kcat/Km of plasminogen activation by the preformed equimolar SAK-plasmin complex, monitored with S-2251: 33000 M⁻¹ s⁻¹
